The record followed here is patent publication US20260176373A1 (BRIGHT BIOLOGICS, published 2026).

Test [1] deals with T1, human TROP2 (Trophoblast cell-surface antigen 2) (human, UniProt P09758 27-323).
T1 construct: whole, on cells; also called TACSTD2; h-TROP2
T1 sequence (looked up): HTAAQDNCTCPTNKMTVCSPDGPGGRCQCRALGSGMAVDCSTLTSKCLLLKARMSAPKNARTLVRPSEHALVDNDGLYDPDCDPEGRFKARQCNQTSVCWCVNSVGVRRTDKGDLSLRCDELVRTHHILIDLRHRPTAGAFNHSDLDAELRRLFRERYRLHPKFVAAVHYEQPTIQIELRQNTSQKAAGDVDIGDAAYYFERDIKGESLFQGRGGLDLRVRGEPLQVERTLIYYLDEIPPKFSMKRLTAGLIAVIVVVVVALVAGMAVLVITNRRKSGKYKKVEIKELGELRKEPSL
Briefly: flow cytometry whole cell binding, CHO-h-TROP2 stable cells. As to the method: (§1) Binding of bivalent anti-TROP2 VHH-Fc clones to human TROP2 in human TROP2 stably transfected CHO cells (CHO-h-TROP2 stable cells) were determined by flow cytometry whole cell binding (WCB) assays. Briefly, antibodies were incubated at different concentrations with CHO-h-TROP2 stable cells (0.2×10⁶/ml) in 96-well plates (100 μl/well) in FACS buffer for 30 min. After washing, Alexa Fluor 488 conjugated anti-human IgG Fc secondary antibody was added, and incubated for 30 min. After washing, MFI was measured using CytoFlex by gating live cell population with FITC channel. EC50 of binding was calculated using GraphPad Prism7.0.
Humanization of Alpaca clone 1H11 was carried out using the same strategy. Ten humanized VHH-Fc variants were made with minor difference in Framework 2. The binding activity of humanized variants to human TROP2 was examined using whole cell binding assays.

The target in test [2] is T1, human TROP2 (Trophoblast cell-surface …). Briefly: flow cytometry whole cell binding, Colo205 cells (endogenous TROP2).
Test [3] has the same target. Briefly: flow cytometry whole cell binding, NCI-H1975 cells (endogenous TROP2).
Test [4] shares this target. Kind of test: flow cytometry whole cell binding, CHO-h-TROP2 stable cells. How it is done: as §1
The same strategy was carried out for the humanization of Alpaca clone 4C6. Ten humanized VHH-Fc variants were made for 4C6 with minor difference in Framework 2 and Framework 3. Whole cell binding to CHO-h-TROP2 stable cells was performed to compare the binding affinities of these humanized VHH-Fc variants to the parental Alpaca clone 4C6.
This is another data set of the same source.

Test [5] shares this target. Kind of test: flow cytometry whole cell binding, h-TROP2 stably transfected CHO cells. How it is done:
as §1

The target in test [6] is T2, human TROP2 (Trophoblast cell-surface antigen 2) (human, UniProt P09758 27-323).
T2 chain: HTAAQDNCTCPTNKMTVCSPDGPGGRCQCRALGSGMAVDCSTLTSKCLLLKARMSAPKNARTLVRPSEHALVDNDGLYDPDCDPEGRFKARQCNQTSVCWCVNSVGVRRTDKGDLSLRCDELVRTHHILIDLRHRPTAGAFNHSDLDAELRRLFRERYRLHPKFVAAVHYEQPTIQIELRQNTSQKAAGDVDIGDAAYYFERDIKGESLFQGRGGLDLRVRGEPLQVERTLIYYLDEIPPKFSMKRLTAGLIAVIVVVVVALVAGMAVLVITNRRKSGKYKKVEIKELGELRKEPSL
Kind of test: flow cytometry whole cell binding, SKBR3.

The target of test [7] is human TROP2 (Trophoblast cell-surface antigen 2) (human) (UniProt P09758). Kind of test: cell-based or functional assay.

B1: 1H11-hv10 (humanized VHH-Fc variant of 1H11, Example 5) (antibody, V domains shown)
VH: EVQLVESGGGLVQPGGSLRLSCAASGGTFSRYIMSWFRQAPGKEREFVSAISGSGGSTYYADSVKGRFTISRDNSKNTLYLQMNSLRAEDTAVYYCASTFYSTTYVAQRDARDYAYWGQGTQVTVSS
notes: hinge not specified
On to B1, for which the concentration giving a half-maximal response (EC50) in test [1] was 2.29 nM; in test [2], 1.71 nM; in test [3] it was 3.12 nM.

B2: 4C6-hv10 (humanized VHH-Fc variant of 4C6) (antibody, V domains shown)
VH: EVQLVESGGGLVQPGGSLRLSCAASGHPFAMYAMGWFRQAPGKEREFVAAIAGNGGSTSYADSVKGRFTISRDNSKNTLYLQMNSLRAEDTAVYYCAAAGGTFYSGTTVATRSSHYDYWGQGTQVTVSS
In turn, B2 had a half-maximal effective concentration (EC50) in test [4] of 1.46 nM.

B3: 4C6-hv4 (humanized VHH-Fc variant of 4C6) (antibody, V domains shown)
VH: EVQLVESGGGLVQPGGSLRLSCAASGHPFAMYAMGWFRQAPGKEREFVSAIAGNGGSTSYADSVKGRFTISRDNSKNTLYLQMNSLRAEDTAVYYCAAAGGTFYSGTTVATRSSHYDYWGQGTQVTVSS
B3: the response in test [4] was half-maximal at 2.6 nM (EC50).

B4: anti-TROP2 VHH-Fc clone Alpaca 4C6 (antibody, human IgG1, V domains shown)
VH: QVQVVESGGGLVQAGGSQRLSCAVSGHPFAMYAMGWFRQAPGKEREFVAAIAGNGGSTSYADSVKGRFTISRDYAKNTNYLQMNSLEPEDTAVYYCAAAGGTFYSGTTVATRSSHYDYWGQGTQVTVSS
notes: domain: hinge region and constant domains (CH2 and CH3); bivalent VHH-Fc, human IgG1 Fc; also called 4C6 Alpaca
As to B4, the values for the half-maximal effective concentration (EC50) in test [5], in test [6] and in test [4] were 1.37 nM, 1.58 nM and 0.97 nM, respectively.

B5: 4C6-hv9 (humanized VHH-Fc variant of 4C6) (antibody, V domains shown)
VH: EVQLVESGGGLVQPGGSLRLSCAASGHPFAMYAMGWFRQAPGKEREFVSAIAGNGGSTYYADSVKGRFTISRDNSKNTLYLQMNSLRAEDTAVYYCAAAGGTFYSGTTVATRSSHYDYWGQGTQVTVSS
The molecule B5 registered a concentration giving a half-maximal response (EC50) in test [4] of 2.32 nM.

B6: anti-TROP2 VHH-Fc clone Alpaca 1H11 (antibody, human IgG1, V domains shown)
VH: LVQLVESGGGLVQAGDSLRLSCTASGGTFSRYIIGWFRQAPGKEREFVTTISGSGGSTYYADSVKGRFTISRDNAKNTVFLQMNSLKPEDTAVYYCASTFYSTTYVAQRDARDYAYWGQGTQVTVSS
notes: domain: hinge region and constant domains (CH2 and CH3); bivalent VHH-Fc, human IgG1 Fc
As to B6, the half-maximal effective concentration (EC50) in test [1] is 1.57 nM; in test [5], 1.84 nM; in test [2] it was 1.53 nM; in test [6] it was 2.14 nM; in test [3], 2.59 nM.

B7: 1H11-hv8 (humanized VHH-Fc variant of 1H11, Example 5) (antibody, V domains shown)
VH: EVQLVESGGGLVQPGGSLRLSCAASGGTFSRYIMGWFRQAPGKEREFVSTISGSGGSTYYADSVKGRFTISRDNSKNTLYLQMNSLRAEDTAVYYCASTFYSTTYVAQRDARDYAYWGQGTQVTVSS
notes: hinge not specified
In the case of B7, the EC50 in test [1] is 1.97 nM; in test [2] it was 1.29 nM; in test [3], 2.54 nM.

B8: 1H11-hv9 (humanized VHH-Fc variant of 1H11) (antibody, V domains shown)
VH: EVQLVESGGGLVQPGGSLRLSCAASGGTFSRYIMSWFRQAPGKEREFVSTISGSGGSTYYADSVKGRFTISRDNSKNTLYLQMNSLRAEDTAVYYCASTFYSTTYVAQRDARDYAYWGQGTQVTVSS
Take B8: the 50% effective concentration (EC50) in test [1] is 2.73 nM; in test [2], 1.29 nM; in test [3] it was 3.04 nM.

B9: 1H11-hv6 (humanized VHH-Fc variant of 1H11) (antibody, V domains shown)
VH: EVQLVESGGGLVQPGGSLRLSCAASGGTFSRYIIGWFRQAPGKEREFVTTISGSGGSTYYADSVKGRFTISRDNSKNTLYLQMNSLRAEDTAVYYCASTFYSTTYVAQRDARDYAYWGQGTQVTVSS
With B9, the EC50 in test [1] was found to be 2.18 nM; in test [2] it was 1.22 nM; in test [3] it was 2.7 nM.

B10: 1H11-hv7 (humanized VHH-Fc variant of 1H11) (antibody, V domains shown)
VH: EVQLVESGGGLVQPGGSLRLSCAASGGTFSRYIIGWFRQAPGKEREFVSTISGSGGSTYYADSVKGRFTISRDNSKNTLYLQMNSLRAEDTAVYYCASTFYSTTYVAQRDARDYAYWGQGTQVTVSS
On to B10, for which the figures for the concentration giving a half-maximal response (EC50) in test [1], in test [2] and in test [3] were 2.59 nM, 1.19 nM and 2.42 nM, respectively.

B11: Immu-132_MMAE (protein, INN chains, looked up)
VH: QVQLQQSGSELKKPGASVKVSCKASGYTFTNYGMNWVKQAPGQGLKWMGWINTYTGEPTYTDDFKGRFAFSLDTSVSTAYLQISSLKADDTAVYFCARGGFGSSYWYFDVWGQGSLVTVSS
VL: DIQLTQSPSSLSASVGDRVSITCKASQDVSIAVAWYQQKPGKAPKLLIYSASYRYTGVPDRFSGSGSGTDFTLTISSLQPEDFAVYYCQQHYITPLTFGAGTKVEIK
modifications: vc-MMAE payload conjugate
With B11, in test [7], the IC50 (nM) in ADC mediated killing, NCI-H441 cells, Immu-132 MMAE DAR3.5 worked out at 0.047 nM; the IC50 (nM) in ADC mediated killing, NCI-H441 cells, Immu-132 MMAE DAR4.0 worked out at 0.04 nM; the IC50 (nM) in ADC mediated killing, NCI-H441 cells, Immu-132 MMAE DAR4.4 amounted to 0.033 nM; the IC50, nM, in killing assay, A431 cells was found to be 0.611 nM. In test [7], this molecule came in with an IC50, nM, in killing assay, AU-565 cells of 0.0489 nM; an IC50, nM, in killing assay, Colo205 cells of 0.45 nM; an IC50, nM, in killing assay, N87 cells of 0.092 nM; an IC50, nM, in killing assay, NCI-H441 cells of 0.054 nM. In test [7], this molecule showed an IC50, nM, in killing assay, NCI-H1975 cells of 0.25 nM; an IC50, nM, in killing assay, OE-19 cells of 1.1 nM; an IC50, nM, in killing assay, SK-OV3 cells of 1.44 nM; an IC50, nM, in killing assay, SKBR3 cells of 0.0362 nM. Also, the IC50, nM, in killing assay, T-47D cells in test [7] was determined as 0.21 nM.
